Results as given in patent publication US20190359663A1.

Assays:
[1] = biological target: L-FABP bound to arachidonic acid (human) (UniProt P07148); assay: sandwich ELISA; L-FABP stored at 37 C for two weeks in BSA-containing buffer; sample stored at 4 C = 100 (FIG. 19)
[2] = biological target: wild type human L-FABP protein (liver-type fatty acid-binding protein) (human) (UniProt P07148); assay: as above
[3] = biological target: L-FABP bound to oleic acid (human) (UniProt P07148); assay: sandwich ELISA; L-FABP stored at 37 C for two weeks in BSA-containing buffer; sample stored at 4 C = 100 (FIG. 20)
[4] = biological target: wild type human L-FABP protein (liver-type fatty acid-binding protein) (human) (UniProt P07148); assay: as above
[5] = biological target: L-FABP M19L/M74L/M113L (human) (UniProt P07148); assay: ELISA (kit not named in this example); OD ratio with and without oxidation treatment with 10 mM AAPH for 1 h at 25 C; FIG. 21
[6] = biological target: L-FABP WT treated with 0.5 mM AAPH (human) (UniProt P07148); assay: as above
[7] = biological target: L-FABP WT treated with 4 mM AAPH (human) (UniProt P07148); assay: as above
[8] = biological target: wild type human L-FABP protein (liver-type fatty acid-binding protein) (human) (UniProt P07148); assay: as above
L-FABP M19L (human) = L-FABP M19L (human) (UniProt P07148); assay: ELISA (kit not named in this example); OD ratio with and without oxidation treatment with 10 mM AAPH for 1 h at 25 C; FIG. 23
[9] = biological target: L-FABP M19L/M113L (human) (UniProt P07148); assay: as above
[10] = biological target: L-FABP M19L/M74L/M113L (human) (UniProt P07148); assay: as above
[11] = biological target: L-FABP WT treated with 0.5 mM AAPH (human) (UniProt P07148); assay: as above
[12] = biological target: L-FABP WT treated with 4 mM AAPH (human) (UniProt P07148); assay: as above
[13] = biological target: L-FABP bound to arachidonic acid (human) (UniProt P07148); assay: as above
[14] = biological target: L-FABP bound to oleic acid (human) (UniProt P07148); assay: as above
[15] = biological target: wild type human L-FABP protein (liver-type fatty acid-binding protein) (human) (UniProt P07148); assay: as above
[16] = biological target: L-FABP that had been oxidation-treated with 40 mM AAPH (human) (UniProt P07148); assay: sandwich ELISA (RENAPRO L-FABP Test TMB); L-FABP stored at 37 C, measured every week for two weeks; sample stored at 4 C = 100
[17] = biological target: wild type human L-FABP protein (liver-type fatty acid-binding protein) (human) (UniProt P07148); assay: as above
[18] = biological target: L-FABP M19L/M74L/M113L (human) (UniProt P07148); assay: sandwich ELISA (RENAPRO L-FABP test TMB); L-FABP reacted with 0 to 5 mM AAPH for 1 h at room temperature with BSA; untreated sample = 100
[19] = biological target: wild type human L-FABP protein (liver-type fatty acid-binding protein) (human) (UniProt P07148); assay: as above
[20] = biological target: L-FABP M19L/M74L/M113L (human) (UniProt P07148); assay: sandwich ELISA (RENAPRO L-FABP Test TMB); L-FABP stored at 25 C with BSA, measured every week for four weeks; sample stored at -80 C = 100
[21] = biological target: wild type human L-FABP protein (liver-type fatty acid-binding protein) (human) (UniProt P07148); assay: as above
[22] = biological target: L-FABP M19L/M74L/M113L (human) (UniProt P07148); assay: sandwich ELISA (RENAPRO L-FABP Test TMB); L-FABP stored at 37 C with BSA, measured every week for four weeks; sample stored at -80 C = 100
[23] = biological target: wild type human L-FABP protein (liver-type fatty acid-binding protein) (human) (UniProt P07148); assay: as above
[24] = biological target: L-FABP M19L/M74L/M113L (human) (UniProt P07148); assay: sandwich ELISA (RENAPRO L-FABP Test TMB) with 1 mass % BSA; oleic acid added to L-FABP at various concentrations, 1.5 h room temperature; untreated sample = 100
[25] = biological target: wild type human L-FABP protein (liver-type fatty acid-binding protein) (human) (UniProt P07148); assay: as above
[26] = biological target: L-FABP M19L/M74L/M113L (human) (UniProt P07148); assay: sandwich ELISA (RENAPRO L-FABP Test TMB) with 1 mass % BSA; arachidonic acid added to L-FABP at various concentrations, 1.5 h room temperature; untreated sample = 100
[27] = biological target: wild type human L-FABP protein (liver-type fatty acid-binding protein) (human) (UniProt P07148); assay: as above
[28] = biological target: L-FABP M19L/M74L/M113L (human) (UniProt P07148); assay: sandwich ELISA (RENAPRO L-FABP Test TMB) with 1 mass % BSA; 8-iso-prostaglandin F2α added to L-FABP at various concentrations, 1.5 h room temperature; untreated sample = 100
[29] = biological target: wild type human L-FABP protein (liver-type fatty acid-binding protein) (human) (UniProt P07148); assay: as above

- ELISA measured value, % of sample stored at 4 C [1]: 99.9 to 100%
- ELISA measured value, % of sample stored at 4 C [2]: 118 to 132%
- ELISA measured value, % of sample stored at 4 C [3]: 100 to 110%
- ELISA measured value, % of sample stored at 4 C [4]: 120 to 130%
- coefficient of change in oxidation (OD ratio, oxidation-treated / not treated) [5]: < 1.3
- coefficient of change in oxidation (OD ratio, oxidation-treated / not treated) [6]: < 1.3
- coefficient of change in oxidation (OD ratio, oxidation-treated / not treated) [7]: < 1.3
- coefficient of change in oxidation (OD ratio, oxidation-treated / not treated) [8]: 1.8
- coefficient of change in oxidation (OD ratio, oxidation-treated / not treated) (L-FABP M19L (human)): < 1.4
- coefficient of change in oxidation (OD ratio, oxidation-treated / not treated) [9]: < 1.4
- coefficient of change in oxidation (OD ratio, oxidation-treated / not treated) [10]: < 1.4
- coefficient of change in oxidation (OD ratio, oxidation-treated / not treated) [11]: < 1.4
- coefficient of change in oxidation (OD ratio, oxidation-treated / not treated) [12]: < 1.4
- coefficient of change in oxidation (OD ratio, oxidation-treated / not treated) [13]: < 1.4
- coefficient of change in oxidation (OD ratio, oxidation-treated / not treated) [14]: < 1.4
- coefficient of change in oxidation (OD ratio, oxidation-treated / not treated) [15]: 1.8
- ELISA measured value (OD 450 nm), % of sample stored at 4 C [16]: 94 to 102%
- ELISA measured value (OD 450 nm), % of sample stored at 4 C [17]: 114 to 130%
- ELISA measured value (OD 450 nm), % of untreated sample [18]: 102 to 107%
- ELISA measured value (OD 450 nm), % of untreated sample [19]: 112 to 121%
- ELISA measured value (OD 450 nm), % of sample stored at -80 C [20]: 101 to 111%
- ELISA measured value (OD 450 nm), % of sample stored at -80 C [21]: 110 to 128%
- ELISA measured value (OD 450 nm), % of sample stored at -80 C [22]: 104 to 113%
- ELISA measured value (OD 450 nm), % of sample stored at -80 C [23]: 117 to 143%
- ELISA measured value (OD 450 nm), % of untreated sample [24]: 92 to 107%
- ELISA measured value (OD 450 nm), % of untreated sample [25]: 100 to 124%
- ELISA measured value (OD 450 nm), % of untreated sample [26]: 88 to 103%
- ELISA measured value (OD 450 nm), % of untreated sample [27]: 104 to 220%
- ELISA measured value (OD 450 nm), % of untreated sample [28]: 96 to 101%
- ELISA measured value (OD 450 nm), % of untreated sample [29]: 95 to 118%
Substance: labeled antibody of the sandwich ELISA kit RENAPRO L-FABP Test TMB (CMIC HOLDINGS Co., Ltd.)
